Reference: the supplement of paper PMC9170038
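Also: bound reporter read as fluorescence of individual clusters on recovered sequencing chips by microscopy, with normalized cluster intensities fitted with a binding model.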

Each sequence was assayed on K4 kissing-loop RNA reporter (assay: apparent KD of K4 kissing-loop reporter; higher = weaker reporter binding). Conditions: Eterna round: R107; input ligand: theophylline 20 uM.
Protocol: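 RNA-MaP round R107: designed RNA switches with theophylline, tryptophan, arginine or FMN aptamers are transcribed on-chip within common flanks. They are titrated with a labelled K4 kissing-loop RNA reporter in RNA-MaP buffer (100 mM Tris pH 7.5, 80 mM KCl, 4 mM MgCl2), without ligand or with the indicated ligand. Median apparent KD per design.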
“AGUACAACUGCGGCCGCCACUCAACGCAGAUCAAAGAUCUGCAUUCACUCAGUGAUGUUGAGUGAGAGGACCGGGCAGUUGUACA [Omei KL Tryp B SS B v3]” was tested, and the “apparent KD of K4 kissing-loop reporter” value was 645 nM. In the case of “CAUACGCAUGGAGGAUAUGAGAUUACUCAUAUUACCCUGUAACAGGUAUCUCAGUGAUGUUGAGACUCAGAAGGCCAUGUGUAUG [Ex FMN B 22]”, the “apparent KD of K4 kissing-loop reporter” value was 435 nM. In the case of “UUUUAUAACCGAAGGAGCGCGUGGGCGCAGUGAUGUUGCGCCCGACAUCACUUCAACUUAACGCAGGUAGGUCGCGGUUUUAAUA [Arginine B (Excl) V2]”, the “apparent KD of K4 kissing-loop reporter” value was 158 nM. In the case of “CAUUCGAAAUGCAGUGAUGUUGCAACUGAUACCAGUAUCGAAAGAUACCCUUGGCAGCGGAAAACCGCUACGUUUUUUUUGAAUG [Ex Theophylline A K4 24]”, the “apparent KD of K4 kissing-loop reporter” value was 357 nM. In the case of “GCAUCCGAUGCAGGAUAUAGAUGAACGAGUGAUGUUUGGAAUUUAUGUCCAAAGCCUACGAUCAAACUAGAAGGGCAUCGGAUGC”, the “apparent KD of K4 kissing-loop reporter” value was 167 nM. With “CCGGGCGGCCGAAGGAGCGGGCGGACCCGAGUGAUGUUCGGGUGGCCCGUGAGGGCCGGUGCCCAGGUAGGUCGCGGAUCCGCCC [#2 Same State - Arginine B Attempt #3 (HarryS)]” the “apparent KD of K4 kissing-loop reporter” value was 116 nM. In the case of “ACGCGCGCGAGUGAUGUUCGGAGCGGCUGGCAGGAUAUGUAGCAAUGCAGAAGGGUCGUGGCGCUCCCUCCUGAAGGAGGGAGCG [#2 Exclusion - FMN A Attempt #25 (HarryS)]”, the “apparent KD of K4 kissing-loop reporter” value was 432 nM. “GAAAGAAAGAAUGAUACCAGACACCCGAGUGAUGUUCGGAGCAGAGUGAUGUUCUAAUAAGUCCCUUGGCAGCAUAAAAGAAAAG [Same State Theophylline B GF 1]” was tested, and the “apparent KD of K4 kissing-loop reporter” value was 331 nM. “UAAUUUAUGUCUUUAAUAUAAUUUUCAGAUACCAGUGAUUAUUAACACCCUUGGCAGCUGUAUAGAGUGAUGUUCUUAUGCUUAA [JR_ExcTheophyA_Sub009]” was tested, and the “apparent KD of K4 kissing-loop reporter” value was 321 nM. For “UACAUAUCACUUUUUCUACAAUUAUUUAGUCAGGAUAUCGAUUAAACGAGAAGGGACAUUAUCAAGUGAUGUUUGAUAAUUCAAA [JR_Nu_SSFMNA_Sub028]”, the “apparent KD of K4 kissing-loop reporter” value was 159 nM. In the case of “AGGUACAAAAGUACCGCUAGAUCCACGGAAGGAGCGCCGGAAACGGCAGGUAGGUCGCCGGGCAGUGAUGUUGCCGGAUCUAGCA [Omei KL Arginine A SS A v4]”, the “apparent KD of K4 kissing-loop reporter” value was 240 nM. “GGUAGGGCAGCUGCGGAAACGCAGCAUAUCGAGGAUAUCGGGAAACCGAGAAGGCGAGUAGUGAUGUUACUGGUUUAGCCCUACC” was tested, and the “apparent KD of K4 kissing-loop reporter” value was 196 nM.

Same assay, conditions: Eterna round: R107; input ligand: tryptophan 2.4 mM
With “AAAACCAAAAGCGAUACCAGCGCGGAGUGAUGUUCCGAGGAUCGGAGUGAUGUUCCGAAGCGCCCUUGGCAGCGCAAAAGCGCAA [Exclusion Theophylline B GF 7]” the “apparent KD of K4 kissing-loop reporter” value was 164 nM. “ACGCUGGUGAAUAACACUAGCGAAAAUUCGCGAGGACCGGUACGGCCGCCACUCGCUAACUGCGAGUGAUGUUCGAUAAUAAAAU [Mat - Mod of OpenEnded 3 - D8]” was tested, and the “apparent KD of K4 kissing-loop reporter” value was 112 nM. “UGACUGGACUGAAGGAGCGCUAAAACUCCUAGUGAUGUUGGGAAAUAGAGACAAAGUCUCAAGCAGGUAGGUCGCAGUCUAGUCU [ArgBS 23 #SwitchBubble #StaticStem]” was tested, and the “apparent KD of K4 kissing-loop reporter” value was 169 nM. “UAAUAAAUUCCAGCGAUAUCGCUCUUCGAAGGAGCGGGCGAAAGUCCAGGUAGGUCGCGGAGAGUGAUGUUCUUUGCGGCGCUGG [whbob_Ex_Arginine_A_2t134]” was tested, and the “apparent KD of K4 kissing-loop reporter” value was 244 nM. In the case of “UAAUCCUAGUGAUAAUAAUCAAGUGGUGGGCGAGGACCGGUACGGCCGCCACUCGAAUAUGCAGUGAUGUUGUAAUCCGGAUAAU [Exclusion - Tryptophan A (Freestyle 6)]”, the “apparent KD of K4 kissing-loop reporter” value was 594 nM. For “AGGAUCACGUCAGUGAUGUUGACGAGAGAUACCAGAGACGAAAGUCUCCCUUGGCAGCUCAUCGUGAUCCGUGACAAAGGUCACA [Omei KL hio A SS C v4]”, the “apparent KD of K4 kissing-loop reporter” value was 297 nM. With “AUUCUGUUUUUAAUGUUUAUUGUAUAAUGGCAGGAUAUCGUAGAAGCGAGAAGGGCUUUUAUGCGUUAUGAGUGAUGUUUGUAGG [dhhyfvmullin]” the “apparent KD of K4 kissing-loop reporter” value was 270 nM. In the case of “UCUCGGGCCAGUGAUGUUGGCGGCAAGUGGCGAGGACCGGUACGGCCGCCACUCGGCGCAGCAGCGGAGUGAUGUUUCGUGAGUA [Same State Tryptophan A GF 16]”, the “apparent KD of K4 kissing-loop reporter” value was 675 nM. For “GCCGUAGAUUGAAGGAGCGGUAUGGGCGUUGGCUGAGUGAUGUUCAGGAAAAGUGGCUUCUACCAGGUAGGUCGCAAUCUACGGC”, the “apparent KD of K4 kissing-loop reporter” value was 109 nM. With “AAAAUAAACCAGUGAUGUUGGUGUGUAGAUACCAGCGACGAAAGUCGCCCUUGGCAGCUGUGGACGUACAAAAUAAGUACGUCCU [MatMod 23 - Jieux - Same State - Theophylline A]” the “apparent KD of K4 kissing-loop reporter” value was 280 nM. In the case of “ACGCGCGCGAGUGAUGUUCGGAGCGGCUGGCAGGAUAUGUAGCAAUGCAGAAGGGUCGUGGCUGCUGGUAGGAAACUACUGGCAG [#2 Exclusion - FMN A Attempt #4 (HarryS)]”, the “apparent KD of K4 kissing-loop reporter” value was 441 nM. With “AAAUUCUUUUUUUUAUAUAACGAUUCAGAAGGAGCGAGGUAGAACUCAGGUAGGUCGCUGAAUAUAAGACUAGUGAUGUUAGUAA [#01 K4 Arginine A Same State]” the “apparent KD of K4 kissing-loop reporter” value was 156 nM. “UUACUACCCAGUGAUGUUGGGUAGCGGCCACGAGGACCGGUACGGCCGCCACUCGAGGUUCGGGAGUGAUGUUCCUACUAUUUGG [Same state Tryptophan A GF 6]” was tested, and the “apparent KD of K4 kissing-loop reporter” value was 160 nM. “AGGAUCACGUCAGUGAUGUUGACAAGAGAUACCAGAGACGAAAGUCUCCCUUGGCAGCUCACUGUGAUCCGUGACAAAGGUCACA [Omei KL hio A SS C v1]” was tested, and the “apparent KD of K4 kissing-loop reporter” value was 76 nM. “GGCGCUGUCUGUGCCGCCCUCCUCGUCCCUCGAGGACCGGUACGGCCGCCACUCGAGUGAUGUUCGGGUAGCCCUCCCUGCCAGC [BDazzled - #22 Exc. Tryptophan A]” was tested, and the “apparent KD of K4 kissing-loop reporter” value was 233 nM. In the case of “UGAUACCAGACUGAUACCAGCAAGUGAUGUUUGUUGAUCUAUGCAGUCAAAGACUGCUCUUGCCCUUGGCAGCAGUCUGGUAUCU [TheoBX 28 #SwitchBubble #StaticStem]”, the “apparent KD of K4 kissing-loop reporter” value was 777 nM. For “UGAUUGCCAGUGAUGUUGGCAGGGUCUGAAGGAGCGCGUGAAAACGCAGGUAGGUCGCAGUAUGGUGCCAAUUGAUCGAAAGAUC [KL-XArg-A3]”, the “apparent KD of K4 kissing-loop reporter” value was 170 nM. In the case of “AGACUACCACACUGUCAAUAGACAGUGUACUAGGAUAUGCUGAUAAGCAGAAGGAGUGAUGUUCCAAGGUAGUCAAUAAAAUAAU [FmnAX 13 U28+A66]”, the “apparent KD of K4 kissing-loop reporter” value was 206 nM. “GUAGGAUGAGGAGGAGGAUGAAUUACUGAAGGAGCGCAGAGAAAUGCAGGUAGGUCGCGGUAAAGAAGUAUAGUGAUGUUAUAUC [#09 K4 Arginine A Same State]” was tested, and the “apparent KD of K4 kissing-loop reporter” value was 598 nM. “UCCCGAGUGAUGUUUGGCUGAUGGAGUGAUACCAGUCCCUAGACUGACCCUUGGCAGCACGACUUGUACCAGGCGGAUCACCCUG [theeternabot_exclusion_KL_Theo_A_5]” was tested, and the “apparent KD of K4 kissing-loop reporter” value was 366 nM. “GGUUUCUGAAGUGAUGUUUCAGGAUGACACAAGGAUAUAUAUGGCGAUAGAAGGUGUGCGUCGCAUGACGAACGACGUCAGCUUC [theeternabot_exclusion_KL_FMN_A_37]” was tested, and the “apparent KD of K4 kissing-loop reporter” value was 93 nM. In the case of “AUUUUGGUUUAGAGUGAUGUUCCUUGUAUUCGAGGACCGGUACGGCCGCCACUCGAAUAGAAAAGAAAAGAAAUGUGUGAUGUUU [BDazzled - #5 SS Tryptophan A]”, the “apparent KD of K4 kissing-loop reporter” value was 567 nM. In the case of “AAUAGGGAUAGUGAUGUUAUCCCUUAUGAUACCAGUGCCAUCGGACACCCUUGGCAGCAUACGGGCAGUGAUGUUGUCCUUGGUG [Exclusion Theophylline A GF 16]”, the “apparent KD of K4 kissing-loop reporter” value was 93.8 nM. With “AGUACAACUGCGGCCGCCACUCAACGCAGAUCAAAGAUCUGCAUUCACUCAGUGAUGUUGAGUGAGAGGACCGGGCAGUUGUACA [Omei KL Tryp B SS B v3]” the “apparent KD of K4 kissing-loop reporter” value was 166 nM. For “CAUACGCAUGGAGGAUAUGAGAUUACUCAUAUUACCCUGUAACAGGUAUCUCAGUGAUGUUGAGACUCAGAAGGCCAUGUGUAUG [Ex FMN B 22]”, the “apparent KD of K4 kissing-loop reporter” value was 387 nM. For “UUUUAUAACCGAAGGAGCGCGUGGGCGCAGUGAUGUUGCGCCCGACAUCACUUCAACUUAACGCAGGUAGGUCGCGGUUUUAAUA [Arginine B (Excl) V2]”, the “apparent KD of K4 kissing-loop reporter” value was 153 nM. In the case of “CAUUCGAAAUGCAGUGAUGUUGCAACUGAUACCAGUAUCGAAAGAUACCCUUGGCAGCGGAAAACCGCUACGUUUUUUUUGAAUG [Ex Theophylline A K4 24]”, the “apparent KD of K4 kissing-loop reporter” value was 176 nM. With “GCAUCCGAUGCAGGAUAUAGAUGAACGAGUGAUGUUUGGAAUUUAUGUCCAAAGCCUACGAUCAAACUAGAAGGGCAUCGGAUGC” the “apparent KD of K4 kissing-loop reporter” value was 192 nM. With “CCGGGCGGCCGAAGGAGCGGGCGGACCCGAGUGAUGUUCGGGUGGCCCGUGAGGGCCGGUGCCCAGGUAGGUCGCGGAUCCGCCC [#2 Same State - Arginine B Attempt #3 (HarryS)]” the “apparent KD of K4 kissing-loop reporter” value was 135 nM. In the case of “ACGCGCGCGAGUGAUGUUCGGAGCGGCUGGCAGGAUAUGUAGCAAUGCAGAAGGGUCGUGGCGCUCCCUCCUGAAGGAGGGAGCG [#2 Exclusion - FMN A Attempt #25 (HarryS)]”, the “apparent KD of K4 kissing-loop reporter” value was 347 nM. With “GAAAGAAAGAAUGAUACCAGACACCCGAGUGAUGUUCGGAGCAGAGUGAUGUUCUAAUAAGUCCCUUGGCAGCAUAAAAGAAAAG [Same State Theophylline B GF 1]” the “apparent KD of K4 kissing-loop reporter” value was 246 nM. With “UAAUUUAUGUCUUUAAUAUAAUUUUCAGAUACCAGUGAUUAUUAACACCCUUGGCAGCUGUAUAGAGUGAUGUUCUUAUGCUUAA [JR_ExcTheophyA_Sub009]” the “apparent KD of K4 kissing-loop reporter” value was 156 nM. With “UACAUAUCACUUUUUCUACAAUUAUUUAGUCAGGAUAUCGAUUAAACGAGAAGGGACAUUAUCAAGUGAUGUUUGAUAAUUCAAA [JR_Nu_SSFMNA_Sub028]” the “apparent KD of K4 kissing-loop reporter” value was 124 nM. In the case of “AGGUACAAAAGUACCGCUAGAUCCACGGAAGGAGCGCCGGAAACGGCAGGUAGGUCGCCGGGCAGUGAUGUUGCCGGAUCUAGCA [Omei KL Arginine A SS A v4]”, the “apparent KD of K4 kissing-loop reporter” value was 198 nM. With “GGUAGGGCAGCUGCGGAAACGCAGCAUAUCGAGGAUAUCGGGAAACCGAGAAGGCGAGUAGUGAUGUUACUGGUUUAGCCCUACC” the “apparent KD of K4 kissing-loop reporter” value was 173 nM.
